Values of other authors as cited in paper PMC5356237.

Target: HER3 (Homo sapiens) (UniProt P21860)
Sequence of UniProt P21860 (P21860 20-1342): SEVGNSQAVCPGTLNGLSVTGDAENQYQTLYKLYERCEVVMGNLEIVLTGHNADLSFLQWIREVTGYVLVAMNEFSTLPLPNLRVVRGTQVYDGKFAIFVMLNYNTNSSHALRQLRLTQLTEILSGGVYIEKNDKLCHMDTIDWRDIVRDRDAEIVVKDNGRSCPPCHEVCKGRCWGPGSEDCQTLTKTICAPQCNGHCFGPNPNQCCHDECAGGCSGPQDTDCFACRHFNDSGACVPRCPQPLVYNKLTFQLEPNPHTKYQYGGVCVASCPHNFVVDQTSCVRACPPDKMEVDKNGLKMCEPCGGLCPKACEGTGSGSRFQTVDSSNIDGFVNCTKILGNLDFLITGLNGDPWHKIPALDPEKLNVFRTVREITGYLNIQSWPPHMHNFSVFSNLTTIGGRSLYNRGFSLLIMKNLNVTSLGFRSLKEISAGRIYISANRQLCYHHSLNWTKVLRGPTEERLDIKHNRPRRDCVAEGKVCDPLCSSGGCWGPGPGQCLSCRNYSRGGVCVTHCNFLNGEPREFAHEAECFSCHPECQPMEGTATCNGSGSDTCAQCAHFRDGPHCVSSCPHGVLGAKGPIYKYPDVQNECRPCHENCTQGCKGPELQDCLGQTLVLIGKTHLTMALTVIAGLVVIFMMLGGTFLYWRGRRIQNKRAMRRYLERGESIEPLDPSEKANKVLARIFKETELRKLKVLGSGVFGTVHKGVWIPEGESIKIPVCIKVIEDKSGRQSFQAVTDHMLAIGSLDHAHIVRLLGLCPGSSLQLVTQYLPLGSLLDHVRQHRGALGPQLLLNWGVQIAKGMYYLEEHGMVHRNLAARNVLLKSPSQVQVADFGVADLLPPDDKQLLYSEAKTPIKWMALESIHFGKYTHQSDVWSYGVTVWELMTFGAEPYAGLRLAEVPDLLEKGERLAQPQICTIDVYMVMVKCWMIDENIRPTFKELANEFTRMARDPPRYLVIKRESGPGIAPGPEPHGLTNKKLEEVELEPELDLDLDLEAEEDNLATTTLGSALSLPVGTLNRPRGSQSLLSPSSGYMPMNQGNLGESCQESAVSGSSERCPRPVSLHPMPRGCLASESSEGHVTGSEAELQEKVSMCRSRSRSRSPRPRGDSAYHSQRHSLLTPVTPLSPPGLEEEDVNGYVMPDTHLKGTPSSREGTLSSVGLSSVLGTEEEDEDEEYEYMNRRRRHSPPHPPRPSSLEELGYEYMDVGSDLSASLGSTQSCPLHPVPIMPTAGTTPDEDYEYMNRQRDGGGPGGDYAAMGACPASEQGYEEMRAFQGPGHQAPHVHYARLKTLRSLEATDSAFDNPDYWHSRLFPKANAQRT

Kd: 0.1 nM
Substance: NRG1b (from UniProt Q02297)
